PMC3064781 (Nucleic Acids Research, 2010)

Target: the molecule itself
Test: crystal structure

B1: Nep1 from Archaeoglobus fulgidus (enzyme)
chain: MGSAFVFLEASLELIPQKIRGHPAVRADAIRRGKRPEKILLDDSKHHTAMKSLEFREKRGRPDIVHQCLLLLLDSPLRDFEVYVHTLNGEIIWVNRETRLPRNYNRFVGLMEKLFEERRITAGDTTLIEFKDVGLRDIVRGRDVLLFREKGGRFEFSELLDGDVAVCIGAFPHGDFFEETLRELGEFKEVSLGTESYTSLYVTSRVLCEYERVRAHKVG
binding result: binds
